Measured values reported in patent US20250144199A1 (UNIVERSITY OF MARYLAND COLLEGE PARK, published 2025).

Biological target: T1, tandem RBDs-Fc fusion protein (SARS-CoV-2 RBDs-Fc, FIG. 8C)
T1 construct: also called RBDs-IgG Fc; tandem RBD-Fc
Test: ELISA, biotinylated C1q on coated protein

B1: mouse C1q protein (Complement Technology Cat #M099), biotin-conjugated (other)
chain 1: EDVCRAPNGKDGAPGNPGRPGRPGLKGERGEPGAAGIRTGIRGFKGDPGESGPPGKPGNVGLPGPSGPLGDSGPQGLKGVKGNPGNIRDQPRPAFSAIRQNPMTLGNVVIFDKVLTNQESPYQNHTGRFICAVPGFYYFNFQVISKWDLCLFIKSSSGGQPRDSLSFSNTNNKGLFQVLAGGTVLQLRRGDEVWIEKDPAKGRIYQGTEADSIFSGFLIFPSA
chain 2: QSSCTGPPGIPGIPGVPGVPGSDGQPGTPGIKGEKGLPGLAGDLGEFGEKGDPGIPGTPGKVGPKGPVGPKGTPGPSGPRGPKGDSGDYGATQKVAFSALRTINSPLRPNQVIRFEKVITNANENYEPRNGKFTCKVPGLYYFTYHASSRGNLCVNLVRGRDRDSMQKVVTFCDYAQNTFQVTTGGVVLKLEQEEVVHLQATDKNSLLGIEGANSIFTGFLLFPDMDA
chain 3: SAGCYGIPGMPGMPGAPGKDGHDGLQGPKGEPGIPAVPGTRGPKGQKGEPGMPGHRGKNGPRGTSGLPGDPGPRGPPGEPGVEGRYKQKHQSVFTVTRQTTQYPEANALVRFNSVVTNPQGHYNPSTGKFTCEVPGLYYFVYYTSHTANLCVHLNLNLARVASFCDHMFNSKQVSSGGVLLRLQRGDEVWLSVNDYNGMVGIEGSNSVFSGFLLFPD
binding result: no binding (tested: C1q 2 µg/ml; 800-7.8 ng/well coated)
